Assay results published in the nanobody polyreactivity screen of Harvey et al. (2022).

Assay: yeast display, Sf9 membrane polyspecificity reagent, FACS + sequencing; frameworks hold sequencing errors
Outline: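 Genes from sorted yeast were amplified by colony PCR, read by MiSeq 2 × 250 sequencing and filtered on CDR length. These cells carried a synthetic nanobody library in Saccharomyces cerevisiae BJ5465 and were sorted by FACS into low and high (top ~1%) gates on anti-HA and streptavidin fluorescence. Polyreactivity is labelled according to the gate of origin.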

Sequence	polyreactivity (PSR sort gate)
QVQLVESGGGLVQAGGSLSLRCADSGRTLWAYAMGGYREAAGNDRELVAAISASGGSTYYADSVKGRFTISRDIAKNTVYLQMNSLKPADTAVYYCRLVSKGRLYDYCGQGTQVTVSS	high polyreactivity
QVQLVESGGGLVQAGGSLSLSCAASGFIFRGYAMGWNRQAPGKEREFVAAISRRGGSTYYADSVKGRFTISRDNAKNTVYLQMNSLKPEDTAVYYCAARYSPVWHKYYYWGQGTEVTVSS	high polyreactivity
QVQLVESGGGLVQAGGSLSLSCAASGFTFGSNDMGWYRQAPGKERELVAAIDGSGDTYYADSVKGRFTISRDNAKNTVYLQMNSLKPEDTAVYYCARDDNPIYSGVTYDYWGQGTQVTVSS	low polyreactivity
QVQLVESGGGLVQAGGSLSLSCAASGFTFGTYTMGWYRQAPRKEREFVAAISFSGTTTYYADSVKGRFTISRDNAKNTVYLQMNSLKPEDTAVYYCATRSPRKGVKGHFRYYYWGQGTQVTVSS	high polyreactivity
QVQLVESGGGLVQAGGSLSLSCAASGFTFYGNAIGGNRQAPGKERELVASISTYYADSVKGRFTISRDNAKNTVYLQMNSLKPEDTAVYYCAATHYDRTYYVIYDYWGQGTQVTVSS	low polyreactivity
QVQLVESGGGLVQAGGSLSLSCAASGFTFYYYAMGWYRQAPGKERELVAAISTRDGNTYYADSVKGRFTISRDNAKNTVYLQMNSLKPEDTAVYYCAADYFRYYPYDYWGQGTQVTVSS	low polyreactivity
QVQLVESGGGLVQAGGSLSLSCAASGFTVYGYAMGWYRQAPGKERELVAAISRRSSSTYYADSVKGRFTISRDNAKNTVYLQMNSLKPEDTAVYYCNTVFQRTGYAAGVDYWGQGTQVTVSS	high polyreactivity
QVQLVESGGGLVQAGGSLSLSCAASGGTFLSNAMGWYRQAPGKERELVASISWGGGSTTYADSVKGRFTISRDNAKNTVYLQMNSLKPEDTAVYYCNALDGPGYYVDYDYWGQGTQVTVSS	low polyreactivity
QVQLVESGGGLVQAGGSLSLSCAASGITFNIYVMGWYRQAPGKERELVAAITDSGGTTYYADSVKGRFTISRDNAKNTVYLQMNSLKPEDTAVYYCAAEPFYSWWWWGDYWGQGTQVTVSS	high polyreactivity
QVQLVESGGGLVQAGGSLSLSCAASGITFVWYALGWYRQAPGTERELVAAISRGGSTYYADSVKGRFTISRDNAKNTVYLQMNSLKPEDTAVYYCNAESAARSTVQQARGYYWGQGTQVTVSS	high polyreactivity
QVQLVESGGGLVQAGGSLSLSCAASGLNFVKNTMGWYRQAPGKETELVAGISQRGGSTYYADSEKGRFTISRDNAKNTVYLQMNSLKPEETAVYYCAAYSRTFEGHRGGYWGQGTQVTVSS	high polyreactivity
QVQLVESGGGLVQAGGSLSLSCAASGRIFDYYAMVWYRQAPGKERDLVAAISTSGGSTYYADSVKGRFTISRDNAKNTVYLQMISLKPVDTAVYYCAKDITVTYPGLDYDYWGQGTQVSVSS	low polyreactivity
QVQLVESGGGLVQAGGSLSLSCAASGRIFGRNAMGWYRQAPGKERELVAAISSSGGTYYADSVKGRFTISRDNAKNTVYLQMISLKPEDTAVYYCNDRVRTQQRWVDYWGQGTQVTVSS	high polyreactivity
QVQLVESGGGLVQAGGSLSLSCAASGRIFGRYAMGWYRQAPGTERVLVAVISSGGSKYYADSVKGRFTISRDNAKNTVYLQMNSLKPEDTAVYYCAAVNRRGYDYWGQGTQVTVSS	low polyreactivity
QVQLVESGGGLVQAGGSLSLSCAASGRIFKSYAMGWYRQAPGKERELVAAIRSGGSTYYADSVKGRFTISRDNAKNTVYFQMNSLKPEDTAVYYCNRVTRTWKVTYHYWGQGTQVTVSS	high polyreactivity
QVQLVESGGGLVQAGGSLSLSCAASGRIFNRNAMGWYRQAPGKEREFVAAISYSSGSTYYADSVKGRFTISRDNAKNTVYLQMNSLKPEDTAVYYCAAKVYNSRRNGYFGWTWGGYDYWGQGTQVTVSS	high polyreactivity
QVQLVESGGGLVQAGGSLSLSCAASGRIFQPYAMGWYRQAPGKERELVARITSGGSTYADSVKGRFTISRDNAKNTVYLQMNSLKPEDTAVYYCAVRFPWYYRGYAYDYWGQGTQVTVSS	high polyreactivity
QVQLVESGGGLVQAGGSLSLSCAASGRIFRRYAMGWYRQAPGKERELVAAISRGGSTYYADSVKGRFTISRDNAKNTVYLQMISLKPEDTAVYYCAAYSQSTSFGGYDSWGQGTQVTVSS	high polyreactivity
QVQLVESGGGLVQAGGSLSLSCAASGRIFRVYAMGWYRQAPGKERELVAAISSRGGRTYYADSVKGRFTISRDNAKNTVYLQMNSLKPEDTAVYYCAADGRSSSRATSRYDYWGQGTQVTVSS	high polyreactivity
QVQLVESGGGLVQAGGSLSLSCAASGRIFYGYAMGWYRLAPGKERELVAAIRTSGGSTYYADSVKGRFTISRDNAKNTVYLQMNSLKPEDTAVYYCNAGIVPRNRYYTPYNYWGQGTQVTVSS	low polyreactivity
QVQLVESGGGLVQAGGSLSLSCAASGRIFYVNAMGWYRQAPGKERELVAAISRSGSSTYYADSVKGRFTISRDNAKNTVYLQMNSLKPEDTAVYYCAARYYGRSQHHFDYWGQGTQVTVSS	high polyreactivity

Sequence	polyreactivity (PSR sort gate)
QVQLVESGGGLVQAGGSLSLSCAASGRIIGFNAMGWYRQAPGKERELVASIRTTGGSTRYADSVKGRFTISRDNAKNTVYLQMNSLKPEDTAVYYCAARWGKTLWQYNYWGQGTQVTVSS	high polyreactivity
QVQLVESGGGLVQAGGSLSLSCAASGRILFRYGMGWYRQAPGKERELVARISWSGGNTHYADSVKGRFTISRDNAKNTVYLQMNSLKPEDTAVYYCNAYYTYWYPRYDYWGQGTQVTVSS	low polyreactivity
QVQLVESGGGLVQAGGSLSLSCAASGRMFLRYAMGWYRQAPGKERELVAVITWSGGSTYYADSVKGRFTISRDNAKNTVYLQMNSLKPEDTAVYYCAADWYPTGFYYWGQGTQVTVSS	low polyreactivity
QVQLVESGGGLVQAGGSLSLSCAASGRSFRIYPMGWYRPAPGKERELVATITWRAGSTYYADSVKGRFTISRDNAKNTVYLLMNSLTPEDTAVYYFAAGRQYGGYRYDYWGQGTQVTVSS	high polyreactivity
QVQLVESGGGLVQAGGSLSLSCAASGRTFGYYTMGWYRQAPGKERELVAAINWGGSRTYYADSVKGRFTISRDNAKNTVYLEMNSLKPEDTAVYYCAADVYRQWADDSWGLGTQVTVSS	high polyreactivity
QVQLVESGGGLVQAGGSLSLSCAASGRTFVRYAMGWYRQAPGKERELVAAISRNAGRTYYADSVKGRFTISRDNAKNTVYLQMNSLKPEDTAVYYCAAPGRNLGTGFYYWGQGTQVTVSS	high polyreactivity
QVQLVESGGGLVQAGGSLSLSCAASGRTFYANAMGWNRQAPGKERELVATITRGGSTNYADSVKGRFTISRDNAKNTVYLQMNSLKPEDTAVYYCAARSYTSSHRHYYWGQGTQVTVSS	low polyreactivity
QVQLVESGGGLVQAGGSLSLSCAASGSIFDYNAMGWYRQAPGKEREVVAAIDGGSTYYADSVKGRFTISRDNAKNNVYLQMNSLKPEDTAVDYCAAEGFQADTYYWPMESWGQGTQVTVSS	low polyreactivity
QVQLVESGGGLVQAGGSLSLSCAASGSIFFVNAMGWYRQAPGKERELVAAISRSGGRTYYADSVKGRFTISRDNAKNTVYFQMNSLKPEDTAVYYCAAEYNPGSYFTYDYWGQGTQVTVSS	low polyreactivity
QVQLVESGGGLVQAGGSLSLSCAASGSIFLYNAMGWYRPAPGKERELVAAISKSGGSTYYADSVKGRFTISRDNAKNTVYLQMNSLKPEDTAFYYCAAGYGRRIRYGSEYDYWGQGTQVTVSS	low polyreactivity
QVQLVESGGGLVQAGGSLSLSCAASGSIFWRNAMGWYRPAPGKERELVAAITSGGSTYYADSVKGRFTISRDNAKNTVYLQMNSLKPEDTAVYYCAAGYSYRYDYWGQGTQVTVSS	low polyreactivity
QVQLVESGGGLVQAGGSLSLSCAASGSIFWYYAMGWYRPAPGKERELVATIDVSAGSTYADSVKGRFTIARDNAKNTVYLQMNSLKPEDTAVYDCNADHYPGEVFYVSSTRYEREYWGQGTQVTVSS	low polyreactivity
QVQLVESGGGLVQAGGSLSLSCAASGSISDVYAMGGYRQAPGKERELVAAITSGASTYYADSVKGRFTISRDNAKNTVYLQMNSLKPEDTAVYYCAAGYSDWYYAAYNSWGQGTQVTVST	low polyreactivity
QVQLVESGGGLVQAGGSLSLSCAASGSISDVYPMGGYRQAPRKERELVAAITSGASTYYADSVKGRFTISRDNAKNTVYLQLNSLKTEDTAVYYCAAGYSDWYYADYNSWGQGTQVTVSS	low polyreactivity
QVQLVESGGGLVQAGGSLSLSCAASGSNFVKNAMGWYRPAPGKERELVATISTGGSTYYADSVKGRFTISRDNAKNTVYLQMNSLKPEDTAVYYCATDFYPRFLLRSYRPYYYWGQGTQVTLSS	low polyreactivity
QVQLVESGGGLVQAGGSLSLSCAASGSTFAFYAMGCYRQAPGKERDLVAASTRSAGSTYYADSVKGRFTISRDNATTTVYLPMNSLKREDTAVYYCAKYVSYSRTLYDYWGQGTQVTVSS	low polyreactivity
QVQLVESGGGLVQAGGSLSLSCAASGSTFARYAMGWYRQAPGKERELVAAISITGSTYYADSVKGRFTISRDNAKNTVYLQMKSLKPEDTAVYYCNVKSKYRYGYWGQGTQVTVSS	high polyreactivity
QVQLVESGGGLVQAGGSLSLSCAASGSTFAYYAMGWYREAPGQERELVAGITWTGGSTYYADSVKGRFTISRDNAKNSVYLQMNSLKPEDTAVYYCAADRYFYEGDYWGQVTQVTVSS	low polyreactivity
QVQLVESGGGLVQAGGSLSLSCAASGSTFYSNAMGWYRQAPGKERELVAAISIGGSTYYADSVKGRFTISRDNAKNTVYLQMNSLKPEDTAVYYCAVDYRHSSSWNAGRWEMYYWGQGTQVTVSS	low polyreactivity
QVQLVESGGGLVQAGGSLSLSCAASGYIFGPYDMGWYRQAPGKERELVAVIDWSGGSTYYADSVKGRFTISRDNAKNTFYLQMNSLKPEDTAVYYCAADISWGVSQFDYWGQGTQVTVSS	low polyreactivity
